These are literature values, as cited in article PMC4131687.

The Kd is a measure of binding affinity in units of concentration.

Data set [1] deals with NaV1.2 (Rattus norvegicus) (UniProt P04775).
Data set [2] addresses NaV1.4 (Rattus norvegicus) (UniProt P15390).

NaV1.2 (Rattus norvegicus), sequence (P04775 whole entry): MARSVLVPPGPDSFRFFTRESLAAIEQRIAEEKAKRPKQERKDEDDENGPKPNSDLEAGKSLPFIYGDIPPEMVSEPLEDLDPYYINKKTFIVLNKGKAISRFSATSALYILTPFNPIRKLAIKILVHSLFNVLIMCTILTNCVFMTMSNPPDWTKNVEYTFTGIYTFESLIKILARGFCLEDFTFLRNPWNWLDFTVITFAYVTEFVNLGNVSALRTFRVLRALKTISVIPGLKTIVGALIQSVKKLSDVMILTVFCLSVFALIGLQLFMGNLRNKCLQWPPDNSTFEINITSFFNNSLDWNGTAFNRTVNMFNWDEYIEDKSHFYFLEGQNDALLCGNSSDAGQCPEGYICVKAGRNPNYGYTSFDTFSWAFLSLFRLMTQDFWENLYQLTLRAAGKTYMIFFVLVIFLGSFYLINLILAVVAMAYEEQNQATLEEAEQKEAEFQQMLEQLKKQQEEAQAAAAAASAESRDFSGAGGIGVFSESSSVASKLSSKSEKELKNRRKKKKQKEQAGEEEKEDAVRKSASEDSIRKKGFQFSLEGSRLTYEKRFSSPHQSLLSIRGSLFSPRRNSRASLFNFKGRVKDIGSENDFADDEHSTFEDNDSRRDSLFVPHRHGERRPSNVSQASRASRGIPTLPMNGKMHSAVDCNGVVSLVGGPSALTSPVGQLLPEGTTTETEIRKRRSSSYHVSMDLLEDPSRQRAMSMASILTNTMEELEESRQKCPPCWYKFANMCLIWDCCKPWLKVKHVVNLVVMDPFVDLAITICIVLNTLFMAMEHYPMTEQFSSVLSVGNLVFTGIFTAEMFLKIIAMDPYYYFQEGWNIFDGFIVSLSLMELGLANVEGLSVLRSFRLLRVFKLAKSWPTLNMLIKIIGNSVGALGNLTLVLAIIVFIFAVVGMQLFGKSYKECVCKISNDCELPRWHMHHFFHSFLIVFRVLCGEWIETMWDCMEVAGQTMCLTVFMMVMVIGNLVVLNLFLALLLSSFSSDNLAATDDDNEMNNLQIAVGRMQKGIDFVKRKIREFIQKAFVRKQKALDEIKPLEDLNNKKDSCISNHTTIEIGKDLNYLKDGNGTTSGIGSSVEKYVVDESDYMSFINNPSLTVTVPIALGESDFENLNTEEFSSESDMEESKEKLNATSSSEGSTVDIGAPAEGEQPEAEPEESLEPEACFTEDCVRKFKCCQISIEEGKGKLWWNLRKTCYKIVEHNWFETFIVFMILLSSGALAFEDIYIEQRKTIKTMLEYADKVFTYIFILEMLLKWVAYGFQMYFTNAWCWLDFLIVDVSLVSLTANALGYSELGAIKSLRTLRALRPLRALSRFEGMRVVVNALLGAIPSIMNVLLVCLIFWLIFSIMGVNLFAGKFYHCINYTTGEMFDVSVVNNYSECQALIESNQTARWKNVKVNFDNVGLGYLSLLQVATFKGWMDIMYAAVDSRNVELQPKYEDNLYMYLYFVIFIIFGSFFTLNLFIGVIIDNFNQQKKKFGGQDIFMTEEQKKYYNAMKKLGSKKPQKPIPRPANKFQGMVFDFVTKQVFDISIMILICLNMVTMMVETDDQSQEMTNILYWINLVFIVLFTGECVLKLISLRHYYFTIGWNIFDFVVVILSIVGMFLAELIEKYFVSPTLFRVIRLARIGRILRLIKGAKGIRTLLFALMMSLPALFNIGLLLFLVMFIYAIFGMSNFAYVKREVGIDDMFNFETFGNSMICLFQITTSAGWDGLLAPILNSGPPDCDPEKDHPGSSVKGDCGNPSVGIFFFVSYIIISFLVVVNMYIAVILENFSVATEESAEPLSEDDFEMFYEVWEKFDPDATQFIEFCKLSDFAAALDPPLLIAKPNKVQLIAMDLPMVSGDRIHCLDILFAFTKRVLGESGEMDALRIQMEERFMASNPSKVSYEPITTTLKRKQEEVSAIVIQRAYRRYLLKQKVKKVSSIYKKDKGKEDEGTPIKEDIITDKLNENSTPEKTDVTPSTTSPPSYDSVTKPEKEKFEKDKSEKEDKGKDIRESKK
NaV1.4 (Rattus norvegicus), sequence (P15390 whole entry): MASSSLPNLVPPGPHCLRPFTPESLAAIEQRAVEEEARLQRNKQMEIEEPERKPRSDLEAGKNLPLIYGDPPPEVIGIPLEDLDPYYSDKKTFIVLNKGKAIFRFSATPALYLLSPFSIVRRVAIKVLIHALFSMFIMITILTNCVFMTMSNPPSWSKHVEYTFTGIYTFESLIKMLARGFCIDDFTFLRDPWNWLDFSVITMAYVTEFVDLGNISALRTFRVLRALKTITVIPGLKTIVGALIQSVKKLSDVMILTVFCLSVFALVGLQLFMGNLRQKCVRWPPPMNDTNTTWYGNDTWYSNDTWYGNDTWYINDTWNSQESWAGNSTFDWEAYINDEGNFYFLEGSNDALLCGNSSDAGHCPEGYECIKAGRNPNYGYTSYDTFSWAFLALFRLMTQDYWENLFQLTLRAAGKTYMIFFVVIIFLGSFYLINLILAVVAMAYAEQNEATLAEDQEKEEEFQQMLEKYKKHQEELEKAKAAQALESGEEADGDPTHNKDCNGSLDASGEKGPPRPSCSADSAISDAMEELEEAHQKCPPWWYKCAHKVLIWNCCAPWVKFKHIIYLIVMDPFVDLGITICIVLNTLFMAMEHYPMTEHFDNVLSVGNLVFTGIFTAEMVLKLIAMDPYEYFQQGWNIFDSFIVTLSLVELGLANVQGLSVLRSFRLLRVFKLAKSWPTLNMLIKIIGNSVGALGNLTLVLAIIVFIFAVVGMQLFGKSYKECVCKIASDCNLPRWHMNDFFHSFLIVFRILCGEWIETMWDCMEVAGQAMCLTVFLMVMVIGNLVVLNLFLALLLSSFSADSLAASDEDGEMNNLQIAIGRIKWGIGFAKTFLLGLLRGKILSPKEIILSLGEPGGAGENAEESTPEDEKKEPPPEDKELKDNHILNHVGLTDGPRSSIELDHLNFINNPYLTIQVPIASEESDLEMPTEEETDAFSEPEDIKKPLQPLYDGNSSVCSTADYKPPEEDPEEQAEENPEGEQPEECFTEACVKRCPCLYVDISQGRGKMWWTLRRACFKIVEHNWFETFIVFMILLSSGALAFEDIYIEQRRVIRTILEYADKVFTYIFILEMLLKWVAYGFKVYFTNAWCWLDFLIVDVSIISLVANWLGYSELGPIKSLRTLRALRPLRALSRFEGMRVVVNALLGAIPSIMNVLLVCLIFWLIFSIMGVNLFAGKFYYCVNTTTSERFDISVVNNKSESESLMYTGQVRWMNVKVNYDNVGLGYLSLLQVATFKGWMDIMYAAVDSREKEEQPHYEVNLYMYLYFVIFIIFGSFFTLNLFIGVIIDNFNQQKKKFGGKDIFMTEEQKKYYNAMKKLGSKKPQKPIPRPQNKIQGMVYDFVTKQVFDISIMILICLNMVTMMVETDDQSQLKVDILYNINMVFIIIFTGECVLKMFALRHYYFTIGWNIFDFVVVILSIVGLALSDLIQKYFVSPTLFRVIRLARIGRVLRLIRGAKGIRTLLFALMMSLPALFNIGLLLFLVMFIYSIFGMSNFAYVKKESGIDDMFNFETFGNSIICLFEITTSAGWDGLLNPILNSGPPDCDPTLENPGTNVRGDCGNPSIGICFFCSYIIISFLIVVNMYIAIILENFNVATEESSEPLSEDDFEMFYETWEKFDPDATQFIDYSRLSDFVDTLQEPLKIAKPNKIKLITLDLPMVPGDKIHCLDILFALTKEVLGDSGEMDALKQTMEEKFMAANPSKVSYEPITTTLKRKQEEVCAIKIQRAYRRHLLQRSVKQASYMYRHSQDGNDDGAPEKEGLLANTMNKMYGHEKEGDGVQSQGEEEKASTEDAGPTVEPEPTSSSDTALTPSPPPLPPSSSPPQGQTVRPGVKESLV

On to “μ-conotoxin KIIIA-P1 (from UniProt P0C195)”, for which, in data set [1], the Kd is 5 nM.
As to “mu-conotoxin KIIIA (from UniProt P0C195)”, in data set [2], the Kd is 50 nM.
